Experimental data as given in patent publication US20090297439A1 (METHERESIS TRANSLATIONAL RESEARCH, published 2009).

Biological target: T1, Met (UniProt P08581 25-932, limits assumed)
T1 construct: Met as the partner of the printed Kd; The assay and the construct are not described; also called HGFR; hepatocyte growth factor receptor
Assay: not stated (given as a property of the antibody in Material and Methods)

T1 sequence (P08581 25-932 limits assumed): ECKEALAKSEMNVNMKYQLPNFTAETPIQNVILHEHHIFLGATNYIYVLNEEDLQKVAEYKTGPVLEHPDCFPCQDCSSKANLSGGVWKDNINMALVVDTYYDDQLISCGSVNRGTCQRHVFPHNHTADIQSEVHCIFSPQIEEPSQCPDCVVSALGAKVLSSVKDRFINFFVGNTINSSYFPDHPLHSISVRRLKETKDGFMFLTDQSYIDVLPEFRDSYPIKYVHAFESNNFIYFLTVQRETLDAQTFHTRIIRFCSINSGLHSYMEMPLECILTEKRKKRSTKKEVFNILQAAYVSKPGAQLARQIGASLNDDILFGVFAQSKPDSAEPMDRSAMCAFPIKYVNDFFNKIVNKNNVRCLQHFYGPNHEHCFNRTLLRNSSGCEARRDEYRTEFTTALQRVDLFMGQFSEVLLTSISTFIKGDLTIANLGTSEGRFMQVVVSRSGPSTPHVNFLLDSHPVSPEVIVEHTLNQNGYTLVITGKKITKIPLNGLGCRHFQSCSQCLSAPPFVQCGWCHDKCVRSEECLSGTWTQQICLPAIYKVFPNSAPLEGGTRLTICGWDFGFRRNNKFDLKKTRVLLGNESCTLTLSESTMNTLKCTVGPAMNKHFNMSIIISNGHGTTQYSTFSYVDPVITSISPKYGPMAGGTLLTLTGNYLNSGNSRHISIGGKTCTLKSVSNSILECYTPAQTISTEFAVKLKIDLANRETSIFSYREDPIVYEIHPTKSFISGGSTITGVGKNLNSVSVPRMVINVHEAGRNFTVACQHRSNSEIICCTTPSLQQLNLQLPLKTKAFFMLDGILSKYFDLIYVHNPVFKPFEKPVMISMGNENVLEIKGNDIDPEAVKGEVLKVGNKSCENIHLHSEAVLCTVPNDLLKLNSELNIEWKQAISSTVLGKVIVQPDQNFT

Kd: 2.64 nM
B1: murine IgG2a MAb DN30 (antibody, V domains shown)
VH: QVQLQQPGTELVKPGASVKLSCKASGYTFTSYWIHWVKQRPGQGLEWIGEINPSSGRTNYNEKFKNKVTVTVDKSSTTAYMQLSNLTSEDSAVYYCASRGYWGQGTTLTVSS
VL: DIVLTQSPASLAVSLGQRATISCKASQSVDYDGGSYMSWFQQRPGQPPKLLISAASNLESGIPARFSGSGSGTDFTLNIHPVEEEDVATYYCQQSYEDPLTFGAGTKLELKR
notes: Murine IgG2a, intact MAb; also called anti-Met monoclonal antibody produced by the hybridoma cell line ICLC PD 05006
